From patent US20100068208A1, “Degranulation inhibitor” (priority 2005, published 2010)
Where no end group is shown, it is not given here.

T1: TGR12-GFP (fused protein of human TGR12 and GFP, encoded by the DNA of SEQ ID NO: 45), stably expressed on … (human, UniProt Q96LB1 1-330)
T1 construct: also called TGR12-GFP expression CHO cell line; not shown: GFP (Wako Pure Chemical) fused after the C-terminus of TGR12
T1 sequence: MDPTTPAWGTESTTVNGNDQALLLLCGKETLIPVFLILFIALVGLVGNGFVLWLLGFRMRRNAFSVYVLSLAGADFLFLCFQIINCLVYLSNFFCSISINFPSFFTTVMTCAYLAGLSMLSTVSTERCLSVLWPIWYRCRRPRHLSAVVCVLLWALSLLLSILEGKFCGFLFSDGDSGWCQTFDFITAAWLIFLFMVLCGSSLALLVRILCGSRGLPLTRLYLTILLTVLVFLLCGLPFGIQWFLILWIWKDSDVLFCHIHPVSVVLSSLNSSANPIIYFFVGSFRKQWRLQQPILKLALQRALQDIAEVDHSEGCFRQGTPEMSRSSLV

T2: human TGR12 (untagged) (human, UniProt Q96LB1 1-330)
T2 sequence: T1 sequence

T3: TGR12-GFP (fused protein of human TGR12 and GFP, encoded by the DNA of SEQ ID NO: 31), stably expressed on … (human, UniProt Q96LB1 1-330)
T3 sequence: T1 sequence

B1: human PACAP27 (pituitary adenylate cyclase activating polypeptide 27) (peptide, UniProt P18509 132-158, looked up)
peptide: HSDGIFTDSYSRYRKQMAVKKYLAAVL
modifications: not fully specified; ends and bridges not checked
notes: domain: PACAP-27
B2: human PACAP38 (pituitary adenylate cyclase activating polypeptide 38) (peptide, UniProt P18509 132-169, looked up)
peptide: HSDGIFTDSYSRYRKQMAVKKYLAAVLGKRYKQRVKNK
modifications: not fully specified; ends and bridges not checked
notes: domain: PACAP-38

Assays:
[1] = biological target: T1, TGR12-GFP (fused protein of human TGR12 …); experiment: competition with 200 pM [125I]-rCST14 (Y0) on CHO-TGR12GFP cells, Hill plot
Experimental: The binding assay using CHO-TGR12GFP was performed as follows. […] After incubation overnight, the cells were washed 3 times with ice-chilled assay buffer (MEM-α, 20 mM HEPES (pH 7.4), 0.05% BSA) and 250 μL of the assay buffer was added thereto. […] After washing 3 times with 500 μL of the assay buffer, the cells were lysed in 250 μL of 0.5N NaOH and the lysate was recovered for measurement of the radioactivity.
Based on the above, non-specific binding was estimated as the activity of 10 μM rat cortistatin-14 and the IC₅₀ value of each peptide was obtained from Hill plot analysis.

human TGR12 (untagged) = biological target: T2, human TGR12 (untagged); experiment: cell-based or functional assay
[2] = biological target: T3, TGR12-GFP (fused protein of human TGR12 …); experiment: cell-based or functional assay

Row | Binder | IC50 [1] [nM] | EC50 in the degranulation on LAD 2 (human TGR12 (untagged)) [nM] | degranulation of LAD 2 (beta-hexosaminidase release, % of total) at 10 nM (human TGR12 (untagged)) [%] | degranulation of LAD 2 (beta-hexosaminidase release, % of total) at 30 nM (human TGR12 (untagged)) [%] | degranulation of LAD 2 (beta-hexosaminidase release, % of total) at 100 nM (human TGR12 (untagged)) [%] | degranulation of LAD 2 (beta-hexosaminidase release, % of total) at 300 nM (human TGR12 (untagged)) [%] | degranulation of LAD 2 (beta-hexosaminidase release, % of total) at 3 µM (human TGR12 (untagged)) [%] | maximum activity in the calcium increasing effect (FLIPR), RBL2H3-TGR12, at 1 nM (human TGR12 (untagged)) [fluorescence intensity] | maximum activity in the calcium increasing effect (FLIPR), RBL2H3-TGR12, at 10 nM (human TGR12 (untagged)) [fluorescence intensity] | maximum activity in the calcium increasing effect (FLIPR), RBL2H3-TGR12, at 100 nM (human TGR12 (untagged)) [fluorescence intensity] | maximum activity in the calcium increasing effect (FLIPR), RBL2H3-TGR12, at 1 µM (human TGR12 (untagged)) [fluorescence intensity] | maximum activity in the calcium increasing effect (FLIPR), RBL2H3-TGR12, at 10 µM (human TGR12 (untagged)) [fluorescence intensity] | EC50 in the calcium increasing effect on CHO-TGR12 [2] [nM] | maximum activity in the calcium increasing effect (FLIPR), CHO-TGR12, at 0.3 nM [2] [fluorescence intensity] | maximum activity in the calcium increasing effect (FLIPR), CHO-TGR12, at 3 nM [2] [fluorescence intensity] | maximum activity in the calcium increasing effect (FLIPR), CHO-TGR12, at 30 nM [2] [fluorescence intensity] | maximum activity in the calcium increasing effect (FLIPR), CHO-TGR12, at 300 nM [2] [fluorescence intensity] | maximum activity in the calcium increasing effect (FLIPR), CHO-TGR12, at 3000 nM [2] [fluorescence intensity] | degranulation of LAD 2 (beta-hexosaminidase release, % of total) at 1 µM (human TGR12 (untagged)) [%]
1 | B1 | 264 | ~51 | 2.6 | 19.6 | 59.4 | 71.1 | 69.1 | 40 | 29 | 5300 | 11500 | 12700 | ~93 | 48 | 58 | 939 | 23000 | 23700 | –
2 | B2 | 47 | ~51 | 7.4 | 24.8 | 49.4 | 65.8 | 63.3 | – | – | – | – | – | ~161 | 287 | 410 | 195 | 23000 | 23300 | 68.9
